doi:10.1101/2024.05.17.594765, “Force-activated zyxin assemblies coordinate actin nucleation and crosslinking to orchestrate stress fiber repair” (bioRxiv, 2024)
One block for each binder: values may come before it.

B1: C-terminally Halo-tagged full-length zyxin (zyxin-Halo) (natural protein, human, UniProt Q15942 1-572, looked up)
chain: MAAPRPSPAISVSVSAPAFYAPQKKFGPVVAPKPKVNPFRPGDSEPPPAPGAQRAQMGRVGEIPPPPPEDFPLPPPPLAGDGDDAEGALGGAFPPPPPPIEESFPPAPLEEEIFPSPPPPPEEEGGPEAPIPPPPQPREKVSSIDLEIDSLSSLLDDMTKNDPFKARVSSGYVPPPVATPFSSKSSTKPAAGGTAPLPPWKSPSSSQPLPQVPAPAQSQTQFHVQPQPQPKPQVQLHVQSQTQPVSLANTQPRGPPASSPAPAPKFSPVTPKFTPVASKFSPGAPGGSGSQPNQKLGHPEALSAGTGSPQPPSFTYAQQREKPRVQEKQHPVPPPAQNQNQVRSPGAPGPLTLKEVEELEQLTQQLMQDMEHPQRQNVAVNELCGRCHQPLARAQPAVRALGQLFHIACFTCHQCAQQLQGQQFYSLEGAPYCEGCYTDTLEKCNTCGEPITDRMLRATGKAYHPHCFTCVVCARPLEGTSFIVDQANRPHCVPDYHKQYAPRCSVCSEPIMPEPGRDETVRVVALDKNFHMKCYKCEDCGKPLSIEADDNGCFPLDGHVLCRKCHTARAQT
modifications: Janelia Fluor 646 Halo-ligand conjugated to the Halo tag
notes: zyxin, human, full length; pCAG vector with a C-terminal 3C protease cleavage site and eGFP tag; eGFP removed with 3C protease on the resin; also called zyxin^WT; zyxin-Halo:JF646; source: HEK293F, transfected, purified (anti-GFP nanobody resin, 3C protease, Mono Q, SEC); not shown: Halo, C-terminal, kept; eGFP, C-terminal, cleaved
B2: C-terminally Halo-tagged VASP (VASP-Halo) (natural protein, human, UniProt P50552 1-380, looked up)
chain: MSETVICSSRATVMLYDDGNKRWLPAGTGPQAFSRVQIYHNPTANSFRVVGRKMQPDQQVVINCAIVRGVKYNQATPNFHQWRDARQVWGLNFGSKEDAAQFAAGMASALEALEGGGPPPPPALPTWSVPNGPSPEEVEQQKRQQPGPSEHIERRVSNAGGPPAPPAGGPPPPPGPPPPPGPPPPPGLPPSGVPAAAHGAGGGPPPAPPLPAAQGPGGGGAGAPGLAAAIAGAKLRKVSKQEEASGGPTAPKAESGRSGGGGLMEEMNAMLARRRKATQVGEKTPKDESANQEEPEARVPAQSESVRRPWEKNSTTLPRMKSSSSVTTSETQPCTPSSSDYSDLQRVKQELLEEVKKELQKVKEEIIEAFVQELRKRGSP
modifications: Janelia Fluor 549 Halo-ligand conjugated to the Halo tag
notes: VASP (vasodilator-stimulated phosphoprotein), human; also called VASP^WT; VASP-Halo:JF549; source: E. coli Rosetta2(DE3), purified (Ni-NTA, StrepTrap XT, 3C protease, SEC); not shown: Strep-Tag II, N-terminal, cleaved; Halo, C-terminal, kept; 6xHis-Tag, C-terminal, cleaved

Experiments:
Details in all cases: both partners purified
[1] = target: T1, C-terminally Halo-tagged ɑ-actinin-1 (ɑ-actinin-Halo) (human, UniProt P12814 1-892, Janelia Fluor 549 Halo-ligand (TIRF assays) or Alexa Fluor 488 Halo-ligand (droplet assays) conjugated to the Halo tag; unlabeled in the bundle assays); assay: TIRF microscopy, force reconstitution assay with purified proteins; immobilised myosins, 30% ATTO 488-labeled F-actin, 25 nM (or 250 nM) zyxin-Halo:JF646 and 50 nM ɑ-actinin-Halo:JF549 in MBOS, +ATP (myosin forces); room temperature
T1 construct: ɑ-actinin-1, human; also called ɑ-actinin^WT; ɑ-actinin-Halo:JF549; source: E. coli Rosetta2(DE3), purified (Ni-NTA, TEV protease, HiTrap Q HP, SEC); not shown: 6xHis-Tag, N-terminal, cleaved; Halo, C-terminal, kept

[2] = target: B1; assay: droplet co-partitioning (iSIM fluorescence microscopy); zyxin construct, VASP and ɑ-actinin mixed together in MBOS with 3% PEG 8K, room temperature; small clusters also without PEG 8K at native cellular concentrations
[3] = target: B2; assay: as above

T1 sequence (P12814 whole entry): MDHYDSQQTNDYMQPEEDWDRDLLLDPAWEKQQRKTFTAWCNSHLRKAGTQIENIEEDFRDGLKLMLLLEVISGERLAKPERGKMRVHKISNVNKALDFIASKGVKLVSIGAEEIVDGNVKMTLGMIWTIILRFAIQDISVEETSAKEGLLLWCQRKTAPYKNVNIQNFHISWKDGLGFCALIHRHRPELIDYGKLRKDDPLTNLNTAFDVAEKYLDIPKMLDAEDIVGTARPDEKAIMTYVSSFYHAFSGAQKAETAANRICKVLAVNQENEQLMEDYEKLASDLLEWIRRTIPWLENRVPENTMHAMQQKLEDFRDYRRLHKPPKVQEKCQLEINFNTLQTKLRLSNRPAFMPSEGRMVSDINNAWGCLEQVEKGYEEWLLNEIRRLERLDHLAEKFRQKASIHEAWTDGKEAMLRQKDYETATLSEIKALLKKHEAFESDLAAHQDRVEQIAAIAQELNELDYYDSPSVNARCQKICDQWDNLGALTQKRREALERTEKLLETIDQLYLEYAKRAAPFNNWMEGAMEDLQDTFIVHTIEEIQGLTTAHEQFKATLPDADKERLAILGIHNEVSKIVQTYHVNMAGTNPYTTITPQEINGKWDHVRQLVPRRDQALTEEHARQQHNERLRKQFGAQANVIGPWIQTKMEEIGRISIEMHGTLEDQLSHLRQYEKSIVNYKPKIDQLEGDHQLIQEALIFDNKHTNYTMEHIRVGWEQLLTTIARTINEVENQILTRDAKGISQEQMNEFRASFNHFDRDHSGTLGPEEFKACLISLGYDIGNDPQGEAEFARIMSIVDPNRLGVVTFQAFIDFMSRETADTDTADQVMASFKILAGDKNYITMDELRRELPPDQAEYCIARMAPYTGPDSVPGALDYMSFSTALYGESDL

Binder: B1
binding result [1]: binds

Binder: B2
binding result [2]: binds

binding result [3]: binds
B3: minimal zyxin construct with the N-terminal binding motifs (amino acids 1–160), Halo-tagged (domain or fragment, human, UniProt Q15942 1-160, looked up)
chain: MAAPRPSPAISVSVSAPAFYAPQKKFGPVVAPKPKVNPFRPGDSEPPPAPGAQRAQMGRVGEIPPPPPEDFPLPPPPLAGDGDDAEGALGGAFPPPPPPIEESFPPAPLEEEIFPSPPPPPEEEGGPEAPIPPPPQPREKVSSIDLEIDSLSSLLDDMTK
modifications: Janelia Fluor 646 Halo-ligand conjugated to the Halo tag
notes: zyxin, human, amino acids 1–160; also called zyxin^N-term; source: HEK293F, transfected, purified (anti-GFP nanobody resin, 3C protease, Mono Q, SEC); not shown: Halo, C-terminal, kept; eGFP, C-terminal, cleaved
